Results on four substances are retold here after patent publication US20080146500A1, “Selective Vpac2 Receptor Peptide Agonists” (priority 2004, published 2008).

Where two headings read alike, the source gives them in different places. Ends that are not written are not given here.

The target of data set [1] is T1, human VPAC2 (Homo sapiens, UniProt P41587).
T1 construct: expressed in transfected cells
T1 sequence (P41587 24-438): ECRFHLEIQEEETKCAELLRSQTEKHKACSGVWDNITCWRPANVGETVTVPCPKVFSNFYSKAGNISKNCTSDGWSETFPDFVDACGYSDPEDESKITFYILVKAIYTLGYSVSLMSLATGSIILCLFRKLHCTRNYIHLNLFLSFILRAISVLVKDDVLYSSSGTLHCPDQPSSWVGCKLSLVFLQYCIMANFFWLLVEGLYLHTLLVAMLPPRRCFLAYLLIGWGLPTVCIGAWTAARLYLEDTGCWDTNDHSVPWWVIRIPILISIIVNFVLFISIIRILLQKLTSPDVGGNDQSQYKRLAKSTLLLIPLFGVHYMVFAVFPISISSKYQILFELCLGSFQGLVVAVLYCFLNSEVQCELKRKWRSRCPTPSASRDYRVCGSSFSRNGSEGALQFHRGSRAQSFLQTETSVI
Put plainly: Filter binding assay, membranes from stable VPAC2 cell line, 125I-labeled VIP tracer. Conditions: read-out: Human receptor binding (IC50; nM) VPAC2. The procedure: For this assay, the solutions and equipment include:
Presoak solution: 0.5% Polyethyleneamine in Aqua dest.
Buffer for flushing filter plates: 25 mM HEPES pH 7.4
Blocking buffer: 25 mM HEPES pH 7.4; 0.2% protease free BSA
Assay buffer: 25 mM HEPES pH 7.4; 0.5% protease free BSA
Dilution and assay plate: PS-Microplate, U form
Filtration Plate Multiscreen FB Opaque Plate; […] Type B Glasfiber filter
In order to prepare the filter plates, the presoak solution is aspirated by vacuum filtration. The plates are flushed twice with 200 μL flush buffer. 200 μL blocking buffer is added to the filter plate. The filter plate is then incubated with 200 μL presoak solution for 1 hour at room temperature.
The assay plate is filled with […] (2.5 μg) suspended in assay buffer, 25 μL compound (agonist) in assay buffer, and 25 μL tracer (about 40000 cpm) in assay buffer. The filled plate is incubated for 1 hour with shaking.
The transfer from assay plate to filter plate is conducted. The blocking buffer is aspirated by vacuum filtration and washed two times with flush buffer. 90 μL is transferred from the assay plate to the filter plate. The 90 μL transferred from assay plate is aspirated and washed three times with 200 μL flush buffer. The plastic support is removed. It is dried for 1 hour at 60° C. 30 μL Microscint is added. The count is performed.
Values reported are single results or the mean of two or more independent runs.

Data set [2] addresses T2, rat VPAC2 receptor (Rattus norvegicus, UniProt P35000).
T2 construct: expressed in transfected cells; host or cells: CHO-PO cells, transient
T2 sequence (P35000 23-437): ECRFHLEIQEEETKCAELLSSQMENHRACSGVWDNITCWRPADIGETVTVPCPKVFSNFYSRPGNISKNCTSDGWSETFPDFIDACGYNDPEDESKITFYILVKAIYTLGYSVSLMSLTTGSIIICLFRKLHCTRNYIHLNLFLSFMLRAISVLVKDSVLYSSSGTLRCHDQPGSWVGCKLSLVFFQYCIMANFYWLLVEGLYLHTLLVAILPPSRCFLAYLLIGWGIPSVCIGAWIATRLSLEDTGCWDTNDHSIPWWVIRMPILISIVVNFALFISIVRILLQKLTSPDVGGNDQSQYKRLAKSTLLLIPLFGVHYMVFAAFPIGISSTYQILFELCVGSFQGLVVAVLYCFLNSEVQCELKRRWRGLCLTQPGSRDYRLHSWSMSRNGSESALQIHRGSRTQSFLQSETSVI
Put plainly: Rat VPAC2 in vitro potency (cAMP generation, DiscoveRx) in transiently transfected CHO-PO cells. Format: cell-based. The following applies: CHO-PO cells transiently transfected with rat VPAC2; read-out: rVPAC2 in vitro potency (cAMP generation) EC50. The procedure:
Rat receptor selectivity is estimated by comparing functional potency (cAMP generation) in CHO-PO cells transiently expressing rat VPAC1 or rat VPAC2 receptors. CHO-PO cells transiently expressing rat VPAC1 or VPAC2, are seeded with 10,000 cells/well three days before the assay. The cells are kept in 200 μL culture medium. […] The stimuli are present for 30 minutes. The assay buffer is then gently removed.

Data set [3] in a line: Rat serum stability at 37 C, remaining active peptide estimated by EC50,4C/EC50,37C in CHO-VPAC2 cAMP assay. The following applies: for Estimated serum stability (%): after 24 h in rat serum at 37 C. The method, then: The rat serum is stored at 4° C. until use and is used within two weeks.
On Day 0, two 100 μL aliquots of 10 μM peptide in rat serum are prepared by adding 10 μL peptide stock to 90 μL rat serum for each aliquot. 250 kIU aprotinin/mL is added to one of these aliquots. The aliquot is stored with aprotinin at 4° C. The aliquot is stored without aprotinin at 37° C. The aliquots are incubated for […].
On Day 1, after incubation of the aliquots prepared on day 0 for 24 hours, an incubation buffer containing PBS+1.3 mM CaCl2, 1.2 mM MgCl2, 2 mM glucose, and 0.25 mM IBMX is prepared. A plate with 11 serial 5× dilutions of peptide for the 4° C. and 37° C. aliquot is prepared for each peptide studied. […] The plate(s) are washed with cells twice in incubation buffer. The plates are allowed to hold 50 μL incubation media per well for 15 minutes. 50 μL solution per well is transferred to the cells from the plate prepared with 11 serial 5× dilutions of peptide for the 4° C. and 37° C. aliquot for each peptide studied, using the maximal concentrations that are indicated by the primary screen, in duplicate. This step dilutes the peptide concentration by a factor of two. The cells are incubated at room temperature for 30 minutes. The supernatant is removed. 40 μL/well of the DiscoveRx antibody/extraction buffer is added. The cells are incubated on the shaker (300 rpm) for 1 hour. Normal procedure with the DiscoveRx kit is followed. cAMP standards are included in column 12. EC50 values are determined from the cAMP assay data.

[4] abbreviates: values >100% may represent release of intact peptide from the PEG conjugate.

The IC50 is the concentration at which inhibition is half-maximal. With “C6-HSDAVFTEQY(OMe)TOrnLRAibQVAK(CO(CH2)2SPEG40K)AibOrnYLQSIOrnOrnGGPSSGAPPPS-NH2 (HSDAVFTEQYTXLRXQVAXXXYLQSIXXGGPSSGAPPPS; non-natural residues) [Agonist P432]”, in data set [1], the IC50 amounted to 130 nM. In addition, in data set [2], the EC50 turned out to be 16.7 nM. For the same substance, in data set [3] (setting [4]), the “Estimated serum stability (%)” value was 102.1%.

With “P137: PEGylated material obtained from P120 and methoxy-PEG2-MAL-40K (HSDAVFTDNYTRLRKQVAAKKYLQSIKNKRYGGPSSGAPPPC; also: PEGylated with methoxy-PEG2-MAL-40K, site not given here) [Agonist P137]”, the IC50 in data set [1] was 0.64 nM. In addition, the EC50 in data set [2] came to 8 nM. For the same substance, the “Estimated 72 h stability (%)” value in data set [3] is 52.8%.

Take “C6-HDAVFTEQY(OMe)TOrnLRAibQVAAAibOrnYLQSIOrnOrnGGPSSGAPPPC(PEG60K)-NH2 [Agonist P404]”: the IC50 in data set [1] stood at 13.1 nM. The EC50 in data set [2] came to 24.4 nM. Moreover, the “Estimated serum stability (%)” value in data set [3] (setting [4]) was 320.7%.

For “C6-HSDAVFTDNYTOrnLRAibQVAAAibKYLQC(PEG40K)IOrnNOrnGGPSSGAPPPS (HSDAVFTDNYTXLRXQVAAXKYLQCIXNXGGPSSGAPPPS; non-natural residues) [Agonist P373]”, in data set [1], the IC50 is 111 nM. Moreover, the EC50 in data set [2] was determined as 72.2 nM. Moreover, in data set [3] (setting [4]), the “Estimated serum stability (%)” value is on record as 73.6%. Besides, the “Estimated 72 h stability (%)” value in data set [3] (after 72 h in rat serum at 37 C, values >100% may represent release of intact peptide from the PEG conjugate) is recorded as 47.1%.
